Test results from US20250101120A1 (BEIJING SOLOBIO GENETECHNOLOGY, published 2025).
Changes are numbered by the printed parent chain. Where two headings read alike, the source gives them in different places.

Tests used:
[1] = molecular target: hFc-hFasL (fusion protein of human Fc fragment and human FasL extracellular region) (human) (UniProt P48023); test: ELISA, hFc-hFasL coated, sample titrated (detection for this reference not separately stated)
[2] = molecular target: hFc-hFasL (fusion protein of human Fc fragment and human FasL extracellular region) (human) (UniProt P48023); test: cell-based or functional assay
[3] = molecular target: T1, hFc-hFasL (fusion protein of human Fc fragment and human FasL extracellular region) (human, UniProt P48023 134-281); test: cell-based or functional assay
T1 sequence: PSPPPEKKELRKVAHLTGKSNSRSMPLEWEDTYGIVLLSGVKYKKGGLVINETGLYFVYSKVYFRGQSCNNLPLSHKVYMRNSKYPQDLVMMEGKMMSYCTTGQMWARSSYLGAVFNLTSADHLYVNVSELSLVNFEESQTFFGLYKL

[4] = molecular target: T1, hFc-hFasL (fusion protein of human Fc …); test: ELISA, hFc-hFasL coated, antibody titrated, anti-human kappa-HRP (protocol of Example 3.2)
[5] = molecular target: T1, hFc-hFasL (fusion protein of human Fc …); test: cell-based or functional assay; remark: listed apart in the source
[6] = molecular target: T1, hFc-hFasL (fusion protein of human Fc …); test: cell-based or functional assay; remark: listed apart in the source
[7] = molecular target: T1, hFc-hFasL (fusion protein of human Fc …); test: cell-based or functional assay; remark: listed apart in the source
[8] = molecular target: T1, hFc-hFasL (fusion protein of human Fc …); test: cell-based or functional assay; remark: listed apart in the source
[9] = molecular target: T1, hFc-hFasL (fusion protein of human Fc …); test: ELISA, hFc-hFasL coated, antibody titrated, anti-human kappa-HRP
[10] = molecular target: T1, hFc-hFasL (fusion protein of human Fc …); test: cell-based or functional assay; remark: listed apart in the source
[11] = molecular target: T1, hFc-hFasL (fusion protein of human Fc …); test: ELISA, hFc-hFasL coated, sample titrated (detection for this reference not separately stated)

MAB126-100 (commercial anti-FasL antibody, RD)
EC50 [1]: 948 pM
HepG2 IC50(nM), FasL antigen-induced cell apoptosis [2]: 0.074 nM
IC50(nM), FasL antigen-induced apoptosis of HepG2 cells (CellTiter-Glo ATP) [2]: 0.099 nM
Jurkat IC50(nM), FasL antigen-induced cell apoptosis [2]: 0.046 nM

B1: humFL-M88-1 (antibody, human IgG4, V domains shown)
VH: QVQLVQSGAEVKKPGASVKVSCKGSGYTFTDYTIHWVRQAPGQGLEWIGVISTYQGDASYNQKFKGRATMTVDKSTSTAYMELSSLRSEDTAVYYCARFPDWDYAMDYWGQGTLVTVSS
VL: EIVMTQSPATLSVSPGERATLSCKASQSVDYDGDSYMNWYQQKPGQPPRLLIYAASNLESGIPARFSGSGSGTEFTLTISSLQSEDFAVYYCQHSRELPYTFGQGTKLEIK
notes: Humanized FL-M88
EC50(nM), FasL antigen-induced NF-κB signaling pathway activation [3]: 0.454 nM
EC50 [4]: 265 pM
HepG2 IC50(nM), FasL antigen-induced cell apoptosis [5]: 0.0125 nM
Jurkat IC50(nM), FasL antigen-induced cell apoptosis [5]: 0.0193 nM

B2: humFL-M88-15 (antibody, human IgG4, V domains shown)
VH: B1 VH with I48M
VL: B1 VL with H94Q
notes: Humanized FL-M88
EC50(nM), FasL antigen-induced NF-κB signaling pathway activation [3]: 0.47 nM
EC50 [4]: 301 pM
HepG2 IC50(nM), FasL antigen-induced cell apoptosis [5]: 0.0143 nM
Jurkat IC50(nM), FasL antigen-induced cell apoptosis [5]: 0.0149 nM

B3: humFL-M88-13 (antibody, human IgG4, V domains shown)
VH: B1 VH
VL: B1 VL with H94Q
notes: Humanized FL-M88
EC50(nM), FasL antigen-induced NF-κB signaling pathway activation [3]: 0.698 nM
EC50 [4]: 302 pM
HepG2 IC50(nM), FasL antigen-induced cell apoptosis [5]: 0.0126 nM
Jurkat IC50(nM), FasL antigen-induced cell apoptosis [5]: 0.0243 nM

B4: humFL-M88-3 (antibody, human IgG4, V domains shown)
VH: B1 VH with I48M
VL: B1 VL
notes: Humanized FL-M88
EC50(nM), FasL antigen-induced NF-κB signaling pathway activation [3]: 0.444 nM
EC50 [4]: 273 pM
HepG2 IC50(nM), FasL antigen-induced cell apoptosis [5]: 0.0276 nM
Jurkat IC50(nM), FasL antigen-induced cell apoptosis [5]: 0.0192 nM

B5: FL-M54 (antibody, V domains shown)
VH: EVQLQQSGVELVKPGASVKLSCKASGYTFTRFDISWVRQRPEQGLEWIGWIFPGDGSSQYNENFKGKATLTTDKSSGTAYMQLNRLTSEDSAVYFCARSLISTAMFDHWGQGTTLTVSS
VL: DIVMTQSPASLAVSLGQRATISCRASKSVSTSDFSYIHWYQQKPGQPPKLLIFLASHLESGVPARFSGSGSGTDFTLNIHPVEEEDAATYYCQHSRELPRTFGGGTKLEIK
notes: Chimeric full-length antibody, tested as human IgG4 / human kappa
HepG2 IC50(nM), FasL antigen-induced cell apoptosis [6]: 0.023 nM
Jurkat IC50(nM), FasL antigen-induced cell apoptosis [6]: 0.023 nM
EC50(nM), FasL antigen-induced NF-κB signaling pathway activation (SEAP, HepG2-Dual) [7]: 1.97 nM
IC50(nM), FasL antigen-induced apoptosis of HepG2 cells (CellTiter-Glo ATP) [8]: 0.018 nM
EC50 [9]: 725 pM
IC50(nM), FasL antigen-induced apoptosis of Jurkat cells (CellTiter-Glo ATP) [10]: 0.018 nM

B6: APG101 (Fas fusion protein, Apogenix) (Fc fusion, UniProt P25445 26-172, looked up)
chain: QVTDINSKGLELRKTVTTVETQNLEGLHHDGQFCHKPCPPGERKARDCTVNGDEPDCVPCQEGKEYTDKAHFSSKCRRCRLCDEGHGLEVEINCTRTQNTKCRCKPNFFCNSTVCEHCDPCTKCEHGIIKECTLTSNTKCKEEGSRS
notes: also called Fas-Fc fusion protein APG101; FasL antagonist APG101; not shown: Fc part of APG101
EC50(nM), FasL antigen-induced NF-κB signaling pathway activation (SEAP, HepG2-Dual) [7]: 7.23 nM
IC50(nM), FasL antigen-induced apoptosis of HepG2 cells (CellTiter-Glo ATP) [8]: 11.3 nM
EC50 [11]: 23500 pM
IC50(nM), FasL antigen-induced apoptosis of Jurkat cells (CellTiter-Glo ATP) [10]: > 100 nM
